Reference: paper doi:10.1101/2020.06.02.126235

Biological target: AAV2 OBD (Adeno-associated virus 2, UniProt P03132 1-199)
Test: X-ray crystallography

AAV2 OBD, sequence (P03132 1-199): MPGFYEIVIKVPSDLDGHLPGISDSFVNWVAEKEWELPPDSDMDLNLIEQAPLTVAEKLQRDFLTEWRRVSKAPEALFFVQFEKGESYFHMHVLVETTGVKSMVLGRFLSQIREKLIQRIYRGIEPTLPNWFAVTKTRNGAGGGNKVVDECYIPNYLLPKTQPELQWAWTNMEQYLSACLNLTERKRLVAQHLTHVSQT

ATATGCTCGCTCTT (ssDNA) [ssRBS 14-mer (Site A)]
binding result: binds
